Measured values published in patent US20140087995A1 (published 2014).
Numbered stars: 1 amine (or outer) side, 2 acyl side, 3 side chain; on linkers, the order of the positions; unused ones are H or OH. Bridge positions count the residues as written; N and C are the ends. Side chains are listed from the residue outwards. Ends that are not written are not given here. * marks the point of attachment. C20 diacid = O=C(O)CCCCCCCCCCCCCCCCCCC(=O)*; γGlu = O=C(O)[C@H](CCC(=O)[*:2])N[*:1]

Assays:
[1] = biological target: T1, human amylin 3(a) receptor (human calcitonin receptor plus RAMP-3) (human, UniProt P30988 25-474; O60896 24-148, limits assumed); experiment: cell-based or functional assay
T1 sequence (looked up) 1: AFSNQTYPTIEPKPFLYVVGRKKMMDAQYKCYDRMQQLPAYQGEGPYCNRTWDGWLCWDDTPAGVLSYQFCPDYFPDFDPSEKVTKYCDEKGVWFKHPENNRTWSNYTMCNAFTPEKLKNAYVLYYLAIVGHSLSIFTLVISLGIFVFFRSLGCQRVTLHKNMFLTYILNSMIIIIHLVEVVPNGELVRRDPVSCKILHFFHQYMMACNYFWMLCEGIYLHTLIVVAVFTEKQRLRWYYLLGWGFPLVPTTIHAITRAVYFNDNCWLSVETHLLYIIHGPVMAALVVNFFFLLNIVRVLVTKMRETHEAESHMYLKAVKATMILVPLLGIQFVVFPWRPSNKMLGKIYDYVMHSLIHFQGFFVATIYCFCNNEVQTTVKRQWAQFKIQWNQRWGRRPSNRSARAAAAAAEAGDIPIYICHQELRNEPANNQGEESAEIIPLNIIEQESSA
T1 sequence (looked up) 2: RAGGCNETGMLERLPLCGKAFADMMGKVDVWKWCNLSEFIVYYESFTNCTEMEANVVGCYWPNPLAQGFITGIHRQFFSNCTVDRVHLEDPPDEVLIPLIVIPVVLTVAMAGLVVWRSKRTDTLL

[2] = biological target: T2, human calcitonin receptor (human, UniProt P30988 25-474); experiment: cell-based or functional assay
T2 sequence (looked up): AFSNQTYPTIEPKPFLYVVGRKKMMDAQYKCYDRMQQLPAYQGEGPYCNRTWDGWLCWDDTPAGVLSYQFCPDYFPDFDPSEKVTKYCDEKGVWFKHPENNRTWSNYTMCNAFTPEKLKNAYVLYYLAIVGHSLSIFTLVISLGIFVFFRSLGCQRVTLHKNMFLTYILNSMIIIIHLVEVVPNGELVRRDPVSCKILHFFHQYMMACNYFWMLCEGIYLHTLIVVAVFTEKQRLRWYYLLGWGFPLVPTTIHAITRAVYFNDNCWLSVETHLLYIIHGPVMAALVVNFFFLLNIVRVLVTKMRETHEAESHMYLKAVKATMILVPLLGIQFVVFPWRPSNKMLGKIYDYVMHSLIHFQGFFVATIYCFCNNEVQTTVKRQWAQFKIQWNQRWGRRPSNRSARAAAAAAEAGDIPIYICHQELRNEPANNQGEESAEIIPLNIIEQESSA

[3] = biological target: T1, human amylin 3(a) receptor (human …); experiment: SPA competition binding, displacement of 125I-rat amylin from membranes of Amylin 3(a)/CRE-luc BHK cells (Assay V)
Method in brief: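 SPA beads + BHK amylin 3(a)/CRE-luc membranes, 35 ng/μL final; buffer 50 mM Hepes pH 7.4, 1 mM CaCl2, 5 mM MgCl₂, 0.1% OA, 0.02% Tween20. 120 min, 25° C, shaken; scintillation count. IC₅₀ by one-site binding competition fit, taken as receptor affinity.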

Row | Binder | hAmylin-R funct. EC50 [1] [nM] | hCTR funct. EC50 [2] [nM] | IC50 [3] [nM] | Ratio hCT/hAmylin funct. [1]
1 | K([γGlu-γGlu-C20 diacid])CNTATCATQRLAEFLRHSSPNFGAIPSSTNVGHETY-NH2 (disulfide 2-7; N-terminus assumed; SMILES CC[C@H](C)[C@H](NC(=O)[C@H](C)NC(=O)CNC(=O)[C@H](Cc1ccccc1)NC(=O)[C@H](CC(N)=O)NC(=O)[C@@H]1CCCN1C(=O)[C@H](CO)NC(=O)[C@H](CO)NC(=O)[C@H](Cc1c[nH]cn1)NC(=O)[C@H](CCCNC(=N)N)NC(=O)[C@H](CC(C)C)NC(=O)[C@H](Cc1ccccc1)NC(=O)[C@H](CCC(=O)O)NC(=O)[C@H](C)NC(=O)[C@H](CC(C)C)NC(=O)[C@H](CCCNC(=N)N)NC(=O)[C@H](CCC(N)=O)NC(=O)[C@@H](NC(=O)[C@H](C)NC(=O)[C@@H]1CSSC[C@H](NC(=O)[C@@H](N)CCCCNC(=O)CC[C@H](NC(=O)CC[C@H](NC(=O)CCCCCCCCCCCCCCCCCCC(=O)O)C(=O)O)C(=O)O)C(=O)N[C@@H](CC(N)=O)C(=O)N[C@@H]([C@@H](C)O)C(=O)N[C@@H](C)C(=O)N[C@@H]([C@@H](C)O)C(=O)N1)[C@@H](C)O)C(=O)N1CCC[C@H]1C(=O)N[C@@H](CO)C(=O)N[C@@H](CO)C(=O)N[C@H](C(=O)N[C@@H](CC(N)=O)C(=O)N[C@H](C(=O)NCC(=O)N[C@@H](Cc1c[nH]cn1)C(=O)N[C@@H](CCC(=O)O)C(=O)N[C@H](C(=O)N[C@@H](Cc1ccc(O)cc1)C(N)=O)[C@@H](C)O)C(C)C)[C@@H](C)O) | 0.445 | 7.05 | 0.525 | 
2 | K([γGlu-γGlu-C20 diacid])CNTATCATQRLAEFLRHSSPNFGAILSSTPVGPETY-NH2 (disulfide 2-7 (inferred)) | 0.222 | 1.28 | 0.069 | 5.8
3 | K([γGlu-γGlu-C20 diacid])CNTATCATQRLAEFLRHSSPNFGAIPSSTNVGPHTY-NH2 (disulfide 2-7 (inferred)) | 0.172 | 2.83 | 0.377 | 
4 | K([γGlu-γGlu-C20 diacid])CNTATCATQRLAEFLRHSSPNFGAIPSSTNVGPETY-NH2 (disulfide 2-7; N-terminus assumed; SMILES CC[C@H](C)[C@H](NC(=O)[C@H](C)NC(=O)CNC(=O)[C@H](Cc1ccccc1)NC(=O)[C@H](CC(N)=O)NC(=O)[C@@H]1CCCN1C(=O)[C@H](CO)NC(=O)[C@H](CO)NC(=O)[C@H](Cc1c[nH]cn1)NC(=O)[C@H](CCCNC(=N)N)NC(=O)[C@H](CC(C)C)NC(=O)[C@H](Cc1ccccc1)NC(=O)[C@H](CCC(=O)O)NC(=O)[C@H](C)NC(=O)[C@H](CC(C)C)NC(=O)[C@H](CCCNC(=N)N)NC(=O)[C@H](CCC(N)=O)NC(=O)[C@@H](NC(=O)[C@H](C)NC(=O)[C@@H]1CSSC[C@H](NC(=O)[C@@H](N)CCCCNC(=O)CC[C@H](NC(=O)CC[C@H](NC(=O)CCCCCCCCCCCCCCCCCCC(=O)O)C(=O)O)C(=O)O)C(=O)N[C@@H](CC(N)=O)C(=O)N[C@@H]([C@@H](C)O)C(=O)N[C@@H](C)C(=O)N[C@@H]([C@@H](C)O)C(=O)N1)[C@@H](C)O)C(=O)N1CCC[C@H]1C(=O)N[C@@H](CO)C(=O)N[C@@H](CO)C(=O)N[C@H](C(=O)N[C@@H](CC(N)=O)C(=O)N[C@H](C(=O)NCC(=O)N1CCC[C@H]1C(=O)N[C@@H](CCC(=O)O)C(=O)N[C@H](C(=O)N[C@@H](Cc1ccc(O)cc1)C(N)=O)[C@@H](C)O)C(C)C)[C@@H](C)O) | 0.225 | 2.36 | 0.121 | 
5 | K([γGlu-γGlu-C20 diacid])CNTATCATQRLAEFLRHSSPNFGAIPSSTNVGHNTY-NH2 (disulfide 2-7; N-terminus assumed; SMILES CC[C@H](C)[C@H](NC(=O)[C@H](C)NC(=O)CNC(=O)[C@H](Cc1ccccc1)NC(=O)[C@H](CC(N)=O)NC(=O)[C@@H]1CCCN1C(=O)[C@H](CO)NC(=O)[C@H](CO)NC(=O)[C@H](Cc1c[nH]cn1)NC(=O)[C@H](CCCNC(=N)N)NC(=O)[C@H](CC(C)C)NC(=O)[C@H](Cc1ccccc1)NC(=O)[C@H](CCC(=O)O)NC(=O)[C@H](C)NC(=O)[C@H](CC(C)C)NC(=O)[C@H](CCCNC(=N)N)NC(=O)[C@H](CCC(N)=O)NC(=O)[C@@H](NC(=O)[C@H](C)NC(=O)[C@@H]1CSSC[C@H](NC(=O)[C@@H](N)CCCCNC(=O)CC[C@H](NC(=O)CC[C@H](NC(=O)CCCCCCCCCCCCCCCCCCC(=O)O)C(=O)O)C(=O)O)C(=O)N[C@@H](CC(N)=O)C(=O)N[C@@H]([C@@H](C)O)C(=O)N[C@@H](C)C(=O)N[C@@H]([C@@H](C)O)C(=O)N1)[C@@H](C)O)C(=O)N1CCC[C@H]1C(=O)N[C@@H](CO)C(=O)N[C@@H](CO)C(=O)N[C@H](C(=O)N[C@@H](CC(N)=O)C(=O)N[C@H](C(=O)NCC(=O)N[C@@H](Cc1c[nH]cn1)C(=O)N[C@@H](CC(N)=O)C(=O)N[C@H](C(=O)N[C@@H](Cc1ccc(O)cc1)C(N)=O)[C@@H](C)O)C(C)C)[C@@H](C)O, also called compound 87) | 0.285 | 1.09 | 0.633 | 3.8
6 | K([γGlu-γGlu-C20 diacid])CNTATCATQRLAEFLRHSSPNFGAIPSSTNVGSNTP-NH2 (disulfide 2-7 (inferred), also called compound 13) | 0.213 | 0.47 | 0.264 | 2.2
7 | K([γGlu-γGlu-C20 diacid])CNTATCATQRLAEFLRHSSPNFGAIPSSTNVGPRTY-NH2 (disulfide 2-7; N-terminus assumed; SMILES CC[C@H](C)[C@H](NC(=O)[C@H](C)NC(=O)CNC(=O)[C@H](Cc1ccccc1)NC(=O)[C@H](CC(N)=O)NC(=O)[C@@H]1CCCN1C(=O)[C@H](CO)NC(=O)[C@H](CO)NC(=O)[C@H](Cc1c[nH]cn1)NC(=O)[C@H](CCCNC(=N)N)NC(=O)[C@H](CC(C)C)NC(=O)[C@H](Cc1ccccc1)NC(=O)[C@H](CCC(=O)O)NC(=O)[C@H](C)NC(=O)[C@H](CC(C)C)NC(=O)[C@H](CCCNC(=N)N)NC(=O)[C@H](CCC(N)=O)NC(=O)[C@@H](NC(=O)[C@H](C)NC(=O)[C@@H]1CSSC[C@H](NC(=O)[C@@H](N)CCCCNC(=O)CC[C@H](NC(=O)CC[C@H](NC(=O)CCCCCCCCCCCCCCCCCCC(=O)O)C(=O)O)C(=O)O)C(=O)N[C@@H](CC(N)=O)C(=O)N[C@@H]([C@@H](C)O)C(=O)N[C@@H](C)C(=O)N[C@@H]([C@@H](C)O)C(=O)N1)[C@@H](C)O)C(=O)N1CCC[C@H]1C(=O)N[C@@H](CO)C(=O)N[C@@H](CO)C(=O)N[C@H](C(=O)N[C@@H](CC(N)=O)C(=O)N[C@H](C(=O)NCC(=O)N1CCC[C@H]1C(=O)N[C@@H](CCCNC(=N)N)C(=O)N[C@H](C(=O)N[C@@H](Cc1ccc(O)cc1)C(N)=O)[C@@H](C)O)C(C)C)[C@@H](C)O, also called compound 110) | 0.278 | 8.16 | 0.326 | 
